According to patent US20220213227A1 (published 2022):

T1: human OX40 on cells (human, UniProt P43489 29-277)
T1 sequence (looked up): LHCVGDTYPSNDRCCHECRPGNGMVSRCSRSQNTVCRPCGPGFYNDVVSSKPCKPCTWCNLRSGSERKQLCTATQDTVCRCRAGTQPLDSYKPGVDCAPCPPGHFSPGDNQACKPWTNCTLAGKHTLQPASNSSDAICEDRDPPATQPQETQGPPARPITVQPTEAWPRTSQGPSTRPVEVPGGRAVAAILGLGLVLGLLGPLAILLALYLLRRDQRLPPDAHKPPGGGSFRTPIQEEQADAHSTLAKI


Columns and labels:
[1] = biological target: T2, soluble extracellular region of human CD38 fused to a 6-His-tag (human, UniProt P28907 43-300); assay: SPR, antibody captured on protein G chip, equilibrium response vs concentration
T2 construct: Extracellular region = UniProt P28907 residues 43-300, with a 6-His-tag at the C-terminal end; also called human CD38 protein; human CD38 antigen

[2] = biological target: soluble extracellular region of cynomolgus monkey CD38 antigen fused to a 6-His-tag (cynomolgus monkey, UniProt Q5VAN0 45-301); assay: SPR
human OX40 on cells = biological target: T1, human OX40 on cells; assay: cell-based or functional assay

| Kd [1] [nM] | Kd [2] [nM] | Binder | EC50 of T cell redirected killing of stable recombinant CHO[OX40] cells (RDL-MTS) (human OX40 on cells) [nM] |
| --- | --- | --- | --- |
| ~300 | ~1200 | human 767 antibody (antibody, human IgG1, kappa, V domains shown, Human IgG1; also called clone 767 IgG1 antibody) VH: QVQLVESGGGLVQPGGSLRLSCAASGFTFSSYWMSWVRQAPGKGLEWVANIKQDGSEKYYVDSVKGRFTISRDNAKNSLYLQMNSLRAEDTAVYYCAREGRTGYFDYWGQGTLVTVSS VL: QSVLTQPPSASGTPGQRVTISCSGSTSNIGTNYVYWYQQLPGTAPKLLIYRNDQRPSGVPDRFSGSKSGTSASLAISGLRSEDEADYYCAAWDDSRSGVYAFGTGTKVTVLR |  |
|  |  | BEAT OX40/CD3 antibody (bispecific antibody, human IgG1, kappa, L234A L235A) heavy: QVTLKESGPALVKPTQTLTLTCSFSGFSLSTSGMGVGWIRQPPGKALEWIAHIWWDDDKYYNTALKTRLTISKDTSKNQVVLTMTNMDPVDTATYYCARIDWDGFAYWGQGTLVTVSSASTKGPSVFPLAPSSKSTSGGTAALGCLVKDYFPEPVTVSWNSGALTSGVHTFPAVLQSSGLYSLSSVVTVPSSSLGTQTYICNVNHKPSNTKVDKKVEPKSCDKTHTCPPCPAPEAAGGPSVFLFPPKPKDTLMISRTPEVTCVVVDVSHEDPEVKFNWYVDGVEVHNAKTKPREEQYNSTYRVVSVLTVLHQDWLNGKEYKCKVSNKALPAPIEKTISKAKGQPREPAVYTLPPSRDELTKNQVKLVCLVTGFYPSDIAVEWESNGQPENNYYTTPPVLDSDGSFSLVSWLNVDKSRWQQGNVFSCSVMHEALHNHYTQKSLSLSPGK light: EIVLTQSPATLSLSPGERATLSCRASSSVSYMHWYQQKPGQAPRPWIYATSNRATGIPARFSGSGSGTDYTLTISSLEPEDFAVYYCQQWSSNPWTFGQGTKVEIKRTVAAPSVFIFPPSDEQLKSGTASVVCLLNNFYPREAKVQWKVDNALQSGNSQESVTEQDSKDSTYSLSSTLTLSKADYEKHKVYACEVTHQGLSSPVTKSFNRGEC EVQLVESGGGLVQPGGSLRLSCAASGYTFTRYTMHWVRQAPGKGLEWIGYINPSRGYTYYADSVKGRFTLSTDKSKNTAYLQMSSLRAEDTAVYYCARYYDDHYCLDYWGQGTLVTVSSGGGGSGGGGSGGGGSGGGASDIQLTQSPSSLSASVGDRVTITCRASSSVSYVAWYQQKPGKAPKRWIYDTSKLYSGVPSRFSGSGSGTDYTLTISSLQPEDFATYYCQQWSSNPPTFGQGTKVEIKGGGGTDKTHTCPPCPAPEAAGGPSVFLFPPKPKDTLMISRTPEVTCVVVDVSHEDPEVQFKWYVDGVEVHNAKTKPREEQYNSTFRVVSVLTVLHQDWLNGKEYKCKVSNKALPAPIEKTISKTKGQPREPEVATFPPSREEMTKNQVTLVCLVTGFYPSDIAVEWESSGQPENNYNTDPPLLESDGSFALSSRLRVDKSRWQQGNIFSCSVMHEALHNRFTQKSLSLSPGK | 0.5 |
